The values below come from patent US20150065420A1 (EXTEND BIOSCIENCES, published 2015).

This assay deals with GHS-R (ghrelin receptor) expressed on CHO-K1 cells. In words: cell-based or functional assay.
Chain of GHS-R (ghrelin receptor) expressed on CHO-K1 cells (Q92847 whole entry): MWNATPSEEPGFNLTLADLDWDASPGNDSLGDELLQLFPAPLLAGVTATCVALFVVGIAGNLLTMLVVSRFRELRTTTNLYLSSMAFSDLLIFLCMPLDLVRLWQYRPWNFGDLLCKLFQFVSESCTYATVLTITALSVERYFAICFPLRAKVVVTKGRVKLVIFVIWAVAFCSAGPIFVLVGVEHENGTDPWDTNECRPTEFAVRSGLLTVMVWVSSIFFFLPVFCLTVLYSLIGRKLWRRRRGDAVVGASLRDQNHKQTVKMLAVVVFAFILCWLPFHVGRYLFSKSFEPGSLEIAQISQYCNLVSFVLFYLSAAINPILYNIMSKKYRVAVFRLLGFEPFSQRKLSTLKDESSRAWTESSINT

B1: Vitamin D3-PEG-maleimide carrier-conjugated ghrelin from Example 3 (peptide)
peptide: GSSFLSPEHQKAQQRKESKKPPAKLQPRC
modifications: n-octanoyl on Ser 3; added C-terminal Cys conjugated through its thiol to the Vitamin D3-PEG(2 kDa)-maleimide carrier of Example 1
Take B1: the “EC50 of intracellular calcium flux (FLIPR, % activation) in GHS-R-expressing CHO-K1 cells” value stood at 85 nM.
